The assay concerns the target T1, human mature interleukin-1β (IL-1β, amino acids 117-269) (human).
T1 construct: Human mature IL-1β, amino acids 117-269; Expressed from pET-28bTEV; source: E. coli BL21 CodonPlus (DE3) RIL, purified (HisTrap, TEV cleavage, size-exclusion chromatography); not shown: His6, N-terminal, cleaved
Nature of the assay: time-resolved fluorometric immunoassay (TRFIA); 60 pmol IL-8 or IL-1β coated on wells; emHofQ wild type and mutants 5 nM-2 μM, 4°C overnight; Eu-N1 anti-6xHis antibody; apparent Kd. The conditions noted are these: both partners purified.

T1 sequence (chain, as listed by the source): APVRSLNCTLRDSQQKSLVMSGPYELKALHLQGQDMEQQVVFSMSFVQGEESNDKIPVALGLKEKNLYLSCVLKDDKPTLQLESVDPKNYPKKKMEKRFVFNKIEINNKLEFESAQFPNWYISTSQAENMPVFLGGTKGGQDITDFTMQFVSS

B1: emHofQ_L1 (H136A, F137A, K139A) (domain or fragment)
chain: QNPVFSIRLKQAPLVPTLQQLALAHNTNLIIDDELQGTVSLQLENVDLDQLFRSVAKIKQLDLWQENGIYYFTKGDTNTKFAGKMEEPFPLSLPMAEEPAQLNTATIKLAAAAASEVMKSLTGGSGSLLSPNGSITFDDRSNLLLIQDEPRSVRNIKKLIKELDKPIEQ
notes: they already carry the substitutions; Secretin HofQ of Aggregatibacter actinomycetemcomitans, extramembranous domain, residues 27-195; The printed gene begins with ATG (Met, in the NdeI site) and ends with CTC GAG (Leu-Glu, XhoI site) before the His tag of pET36b; also called emHofQ mutant L1; source: E. coli BL21 CodonPlus (DE3) RIL, induced overnight at 16°C, purified (HisTrap, size-exclusion …)
Regarding B1, the Kd was found to be 450 ± 160 nM.

B2: emHofQ_L1L2 (H136A, F137A, K139A, D165A, R166A) (domain or fragment)
chain: QNPVFSIRLKQAPLVPTLQQLALAHNTNLIIDDELQGTVSLQLENVDLDQLFRSVAKIKQLDLWQENGIYYFTKGDTNTKFAGKMEEPFPLSLPMAEEPAQLNTATIKLAAAAASEVMKSLTGGSGSLLSPNGSITFDAASNLLLIQDEPRSVRNIKKLIKELDKPIEQ
notes: they already carry the substitutions; Secretin HofQ of Aggregatibacter actinomycetemcomitans, extramembranous domain, residues 27-195; The printed gene begins with ATG (Met, in the NdeI site) and ends with CTC GAG (Leu-Glu, XhoI site) before the His tag of pET36b; also called emHofQ mutant L1L2; source: E. coli BL21 CodonPlus (DE3) RIL, induced overnight at 16°C, purified (HisTrap, size-exclusion …)
As to B2, the Kd was 440 ± 70 nM.

B3: emHofQ_L2 (D165A, R166A) (domain or fragment)
chain: QNPVFSIRLKQAPLVPTLQQLALAHNTNLIIDDELQGTVSLQLENVDLDQLFRSVAKIKQLDLWQENGIYYFTKGDTNTKFAGKMEEPFPLSLPMAEEPAQLNTATIKLHFAKASEVMKSLTGGSGSLLSPNGSITFDAASNLLLIQDEPRSVRNIKKLIKELDKPIEQ
notes: they already carry the substitutions; Secretin HofQ of Aggregatibacter actinomycetemcomitans, extramembranous domain, residues 27-195; The printed gene begins with ATG (Met, in the NdeI site) and ends with CTC GAG (Leu-Glu, XhoI site) before the His tag of pET36b; also called emHofQ mutant L2; source: E. coli BL21 CodonPlus (DE3) RIL, induced overnight at 16°C, purified (HisTrap, size-exclusion …)
On to B3, for which the Kd stood at 330 ± 70 nM.

The values above are taken from PMC6086316, “Interactions between the Aggregatibacter actinomycetemcomitans secretin HofQ and host cytokines indicate a link between natural competence and interleukin-8 uptake” (Virulence, 2018).
